Measured values from patent US20240042018A1 (University of Washington, published 2024).

T1: I53_dn5B trimer
T1 chain: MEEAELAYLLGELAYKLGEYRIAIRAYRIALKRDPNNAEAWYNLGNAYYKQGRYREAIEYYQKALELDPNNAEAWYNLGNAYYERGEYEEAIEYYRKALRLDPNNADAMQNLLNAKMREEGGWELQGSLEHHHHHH


Target: T1, I53_dn5B trimer
Assay: in vitro nanoparticle assembly, SEC

Binder	binding result
I53_dn5A_D120C pentamer coupled to 1 kDa PEG (designed binder) MGKYDGSKLRIGILHARGNAEIILALVLGALKRLQEFGVKRENIIIETVPGSFELPYGSKLFVEKQKRLGKPLDAIIPIGVLIRGSTPHFDYIADSTTHQLMKLNFELGIPVIFGVITADTCEQAEARAGLIEGKMHNHGEDWGAAAVEMATKFNGGWELQLEGSHHHHHH	binds
I53_dn5A_D120C pentamer coupled to 2 kDa PEG (designed binder) MGKYDGSKLRIGILHARGNAEIILALVLGALKRLQEFGVKRENIIIETVPGSFELPYGSKLFVEKQKRLGKPLDAIIPIGVLIRGSTPHFDYIADSTTHQLMKLNFELGIPVIFGVITADTCEQAEARAGLIEGKMHNHGEDWGAAAVEMATKFNGGWELQLEGSHHHHHH	binds
I53_dn5A_2C2kPEG pentamer (designed binder) MGKYDGSKLRIGILHARGNAEIILALVLGALKRLQEFGVKRENIIIETVPGSFELPYGSKLFVEKQKRLGKPLDAIIPIGVLIRGCTPHFDYIADSTTHQLMKLNFELGIPVIFGVITADTCEQAEARAGLIEGKMHNHGEDWGAAAVEMATKFNGGWELQLEGSHHHHHH	binds
I53_dn5A_S84C_D120C pentamer coupled to 1 kDa PEG (designed binder) MGKYDGSKLRIGILHARGNAEIILALVLGALKRLQEFGVKRENIIIETVPGSFELPYGSKLFVEKQKRLGKPLDAIIPIGVLIRGCTPHFDYIADSTTHQLMKLNFELGIPVIFGVITADTCEQAEARAGLIEGKMHNHGEDWGAAAVEMATKFNGGWELQLEGSHHHHHH	binds
I53_dn5A_S84C_D120C pentamer coupled to 5 kDa PEG (designed binder, 5 kDa PEG-maleimide on Cys84 and Cys120) MGKYDGSKLRIGILHARGNAEIILALVLGALKRLQEFGVKRENIIIETVPGSFELPYGSKLFVEKQKRLGKPLDAIIPIGVLIRGCTPHFDYIADSTTHQLMKLNFELGIPVIFGVITADTCEQAEARAGLIEGKMHNHGEDWGAAAVEMATKFNGGWELQLEGSHHHHHH	binds
I53_dn5Acp7 pentamer with ELP fused to the C terminus (designed binder) MGSHHHHHHGSDEQAEERAGTKAGNHGEDWGAAAVEMATKFNGSGGSGKYDGSKLRIGILHARGNAEIILELVLGALKRLQEFGVKRENIIIETVPGSFELPYGSKLFVEKQKRLGKPLDAIIPIGVLIRGSTAHFDYIADSTTHQLMKLNFELGIPVIFGVLTTES	binds
I53_dn5Acp7 PAS pentamer (designed binder) MGSHHHHHHGSDEQAEERAGTKAGNHGEDWGAAAVEMATKFNGSGGSGKYDGSKLRIGILHARGNAEIILELVLGALKRLQEFGVKRENIIIETVPGSFELPYGSKLFVEKQKRLGKPLDAIIPIGVLIRGSTAHFDYIADSTTHQLMKLNFELGIPVIFGVLTTESGGSASPAAPAPASPAAPAPSAPAAASPAAPAPASPAAPAPSAPAAASPAAPAPASPAAPAPSAPAA	binds

target: I53-50B.4PT1 pentamer; assay: nanoparticle assembly grade, Table 3

Binder	binding result
SEQ ID NO 68 (I53-50A_4gly) (designed binder, N-linked glycans at sequons 45-NAT-47; 73-YANET-77; 81-NAT-83; 96-NFT-98) EELFKKHKIVAVLRANSVEEAIEKAVAVFAGGVHLIEITFTVPNATTVIKALSVLKEKGAIIGAGTVTSVEYANETVESNATFIVSPHLDEEISNFTKEKGVFYMPGVMTPTELVKAMKLGHTILKLFPGEVVGPQFVKAMKGPFPNVKFVPTGGVNLDNVCEWFKAGVLAVGVGSALVKGTPDEVREKAKAFVEKIRGC	binds
SEQ ID NO 74 (I53-50A_6gly) (designed binder, N-linked glycans at sequons 45-NAT-47; 81-NAT-83; 96-NFT-98; 102-NVT-104; 122-NVT-124; 146-FHNAT-150) EELFKKHKIVAVLRANSVEEAIEKAVAVFAGGVHLIEITFTVPNATTVIKALSVLKEKGAIIGAGTVTSVEQCRKAVESNATFIVSPHLDEEISNFTKEKNVTYMPGVMTPTELVKAMKLNVTILKLFPGEVVGPQFVKAMKGPFHNATFVPTGGVNLDNVCEWFKAGVLAVGVGSALVKGTPDEVREKAKAFVEKIRGC	binds
SEQ ID NO 71 (I53-50A_5gly) (designed binder, N-linked glycans at sequons 45-NAT-47; 73-YANET-77; 96-NFT-98; 122-NVT-124; 146-FHNAT-150) EELFKKHKIVAVLRANSVEEAIEKAVAVFAGGVHLIEITFTVPNATTVIKALSVLKEKGAIIGAGTVTSVEYANETVESGAEFIVSPHLDEEISNFTKEKGVFYMPGVMTPTELVKAMKLNVTILKLFPGEVVGPQFVKAMKGPFHNATFVPTGGVNLDNVCEWFKAGVLAVGVGSALVKGTPDEVREKAKAFVEKIRGC	binds
SEQ ID NO 73 (I53-50A_6gly) (designed binder, N-linked glycans at sequons 45-NAT-47; 69-FSNET-73; 96-NFT-98; 102-NVT-104; 122-NVT-124; 146-FHNAT-150) EELFKKHKIVAVLRANSVEEAIEKAVAVFAGGVHLIEITFTVPNATTVIKALSVLKEKGAIIGAGTVFSNETCRKAVESGAEFIVSPHLDEEISNFTKEKNVTYMPGVMTPTELVKAMKLNVTILKLFPGEVVGPQFVKAMKGPFHNATFVPTGGVNLDNVCEWFKAGVLAVGVGSALVKGTPDEVREKAKAFVEKIRGC	binds
SEQ ID NO 69 (I53-50A_4gly) (designed binder, N-linked glycans at sequons 96-NFT-98; 102-NVT-104; 122-NVT-124; 146-FHNAT-150) EELFKKHKIVAVLRANSVEEAIEKAVAVFAGGVHLIEITFTVPDADTVIKALSVLKEKGAIIGAGTVTSVEQCRKAVESGAEFIVSPHLDEEISNFTKEKNVTYMPGVMTPTELVKAMKLNVTILKLFPGEVVGPQFVKAMKGPFHNATFVPTGGVNLDNVCEWFKAGVLAVGVGSALVKGTPDEVREKAKAFVEKIRGC	binds
SEQ ID NO 70 (I53-50A_4gly) (designed binder, N-linked glycans at sequons 69-FSNET-73; 81-NAT-83; 96-NFT-98; 102-NVT-104) EELFKKHKIVAVLRANSVEEAIEKAVAVFAGGVHLIEITFTVPDADTVIKALSVLKEKGAIIGAGTVFSNETCRKAVESNATFIVSPHLDEEISNFTKEKNVTYMPGVMTPTELVKAMKLGHTILKLFPGEVVGPQFVKAMKGPFPNVKFVPTGGVNLDNVCEWFKAGVLAVGVGSALVKGTPDEVREKAKAFVEKIRGC	binds
I53-50A_4gly trimer (designed binder, N-linked glycans at sequons 45-NAT-47; 73-YANET-77; 96-NFT-98; 146-FHNAT-150) EELFKKHKIVAVLRANSVEEAIEKAVAVFAGGVHLIEITFTVPNATTVIKALSVLKEKGAIIGAGTVTSVEYANETVESGAEFIVSPHLDEEISNFTKEKGVFYMPGVMTPTELVKAMKLGHTILKLFPGEVVGPQFVKAMKGPFHNATFVPTGGVNLDNVCEWFKAGVLAVGVGSALVKGTPDEVREKAKAFVEKIRGCLEEQKLISEEDLHHHHHH	binds

Target: T1, I53_dn5B trimer
Assay: nanoparticle assembly grade, Table 3

Binder	binding result
SEQ ID NO 49 (I53_dn5A_3gly) (designed binder, N-linked glycans at sequons 83-NET-85; 118-NDT-120; 130-NAT-132) KYDGSKLRIGILHARGNAEIILELVLGALKRLQEFGVKRENIIIETVPGSFELPYGSKLFVEKQKRLGKPLDAIIPIGVLIRNETAHFDYIADSTTHQLMKLNFELGIPVIFGVLTTNDTEQAEERAGTNATNHGEDWGAAAVEMATKFNLEEQKLISEEDLHHHHHH	binds
SEQ ID NO 50 (I53_dn5A_3gly) (designed binder, N-linked glycans at sequons 84-NDT-86; 120-NET-122; 131-NGT-133) KYDGSKLRIGILHARGNAEIILELVLGALKRLQEFGVKRENIIIETVPGSFELPYGSKLFVEKQKRLGKPLDAIIPIGVLIRGNDTHFDYIADSTTHQLMKLNFELGIPVIFGVLTTESNETAEERAGTKNGTHGEDWGAAAVEMATKFNLEEQKLISEEDLHHHHHH	binds
SEQ ID NO 53 (I53_dn5A_2gly) (designed binder, N-linked glycans at sequons 84-NDT-86; 131-NGT-133) KYDGSKLRIGILHARGNAEIILELVLGALKRLQEFGVKRENIIIETVPGSFELPYGSKLFVEKQKRLGKPLDAIIPIGVLIRGNDTHFDYIADSTTHQLMKLNFELGIPVIFGVLTTESDEQAEERAGTKNGTHGEDWGAAAVEMATKFNLEEQKLISEEDLHHHHHH	binds
SEQ ID NO 55 (I53_dn5A_2gly) (designed binder, N-linked glycans at sequons 120-NET-122; 130-NAT-132) KYDGSKLRIGILHARGNAEIILELVLGALKRLQEFGVKRENIIIETVPGSFELPYGSKLFVEKQKRLGKPLDAIIPIGVLIRGSTAHFDYIADSTTHQLMKLNFELGIPVIFGVLTTESNETAEERAGTNATNHGEDWGAAAVEMATKFNLEEQKLISEEDLHHHHHH	binds
SEQ ID NO 52 (I53_dn5A_2gly) (designed binder, N-linked glycans at sequons 83-NDT-85; 130-NAT-132) KYDGSKLRIGILHARGNAEIILELVLGALKRLQEFGVKRENIIIETVPGSFELPYGSKLFVEKQKRLGKPLDAIIPIGVLIRNDTAHFDYIADSTTHQLMKLNFELGIPVIFGVLTTESDEQAEERAGTNATNHGEDWGAAAVEMATKFNLEEQKLISEEDLHHHHHH	binds
SEQ ID NO 51 (I53_dn5A_3gly) (designed binder, N-linked glycans at sequons 84-NDT-86; 118-NDT-120; 130-NAT-132) KYDGSKLRIGILHARGNAEIILELVLGALKRLQEFGVKRENIIIETVPGSFELPYGSKLFVEKQKRLGKPLDAIIPIGVLIRGNDTHFDYIADSTTHQLMKLNFELGIPVIFGVLTTNDTEQAEERAGTNATNHGEDWGAAAVEMATKFNLEEQKLISEEDLHHHHHH	binds

Target: T1, I53_dn5B trimer
Assay: in vitro nanoparticle assembly, SEC and SDS-PAGE

Binder	binding result
I53_dn5A_1C5kPEG pentamer (designed binder) MGKYDGSKLRIGILHARGNAEIILALVLGALKRLQEFGVKRENIIIETVPGSFELPYGSKLFVEKQKRLGKPLDAIIPIGVLIRGSTPHFDYIADSTTHQLMKLNFELGIPVIFGVITADTCEQAEARAGLIEGKMHNHGEDWGAAAVEMATKFNGGWELQLEGSHHHHHH	binds

target: I53-50B.4PT1 pentamer; assay: in vitro nanoparticle assembly (Table 3; '-' means no nanoparticle assembly)

Binder	binding result
SEQ ID NO 77 (I53-50A_7gly) (designed binder, N-linked glycans at sequons 45-NAT-47; 73-YANET-77; 81-NAT-83; 96-NFT-98; 102-NVT-104; 122-NVT-124; 146-FHNAT-150) EELFKKHKIVAVLRANSVEEAIEKAVAVFAGGVHLIEITFTVPNATTVIKALSVLKEKGAIIGAGTVTSVEYANETVESNATFIVSPHLDEEISNFTKEKNVTYMPGVMTPTELVKAMKLNVTILKLFPGEVVGPQFVKAMKGPFHNATFVPTGGVNLDNVCEWFKAGVLAVGVGSALVKGTPDEVREKAKAFVEKIRGC	no binding
SEQ ID NO 76 (I53-50A_7gly) (designed binder, N-linked glycans at sequons 45-NAT-47; 69-FSNET-73; 81-NAT-83; 96-NFT-98; 102-NVT-104; 122-NVT-124; 146-FHNAT-150) EELFKKHKIVAVLRANSVEEAIEKAVAVFAGGVHLIEITFTVPNATTVIKALSVLKEKGAIIGAGTVFSNETCRKAVESNATFIVSPHLDEEISNFTKEKNVTYMPGVMTPTELVKAMKLNVTILKLFPGEVVGPQFVKAMKGPFHNATFVPTGGVNLDNVCEWFKAGVLAVGVGSALVKGTPDEVREKAKAFVEKIRGC	no binding
SEQ ID NO 75 (I53-50A_6gly) (designed binder, N-linked glycans at sequons 45-NAT-47; 73-YANET-77; 96-NFT-98; 102-NVT-104; 122-NVT-124; 146-FHNAT-150) EELFKKHKIVAVLRANSVEEAIEKAVAVFAGGVHLIEITFTVPNATTVIKALSVLKEKGAIIGAGTVTSVEYANETVESGAEFIVSPHLDEEISNFTKEKNVTYMPGVMTPTELVKAMKLNVTILKLFPGEVVGPQFVKAMKGPFHNATFVPTGGVNLDNVCEWFKAGVLAVGVGSALVKGTPDEVREKAKAFVEKIRGC	no binding
